The experiment concerns the target N-terminal domain of Saccharomyces cerevisiae Hsp82 (1–210) (Saccharomyces cerevisiae, UniProt P02829 1-210). As to the kind of experiment: NMR titration.

Sequence of N-terminal domain of Saccharomyces cerevisiae Hsp82 (1–210) (P02829 1-210): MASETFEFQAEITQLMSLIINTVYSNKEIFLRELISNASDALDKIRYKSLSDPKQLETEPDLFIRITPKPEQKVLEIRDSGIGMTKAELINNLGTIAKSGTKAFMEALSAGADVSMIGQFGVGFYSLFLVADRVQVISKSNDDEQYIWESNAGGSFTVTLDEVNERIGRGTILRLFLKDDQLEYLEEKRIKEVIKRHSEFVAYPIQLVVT

B1: CS domain of S. cerevisiae Sgt1 (176–290) (domain or fragment)
chain: ETAPQESPKFKIDWYQSSTSVTISLFTVNLPESKEQVNIYISPNDRRTLSISYQVPKSGSEFQYNAKLSHEVDPKAVSLKIFPKKLEITLSKIDSTQWKKLEEDILTESSRLSDE
B1 returned a dissociation constant (Kd) of 27 ± 3 µM.

B2: CS domain of Arabidopsis SGT1a (149–253), NMR sample (domain or fragment)
chain: TAKYRHEYYQKPEEVVVTVFAKGIPKQNVNIDFGEQILSVVIEVPGEDAYYLQPRLFGKIIPDKCKYEVLSTKIEICLAKADIITWASLEHGKGPAVLPKPNVSS
For B2, the binding result is recorded as “binds”.

The values above are taken from article PMC2570500 (EMBO Reports, 2008).
